We go through ten molecules from patent publication US20250042994A1 (HAINAN SIMCERE ZAIMING PHARMACEUTICAL, published 2025).

The labels stand for the following.
B1: F3.126.15 (antibody, human IgG1, V domains shown)
VH: QVQLQQPGAELVMPGASVKLSCKASGYTFTSYWMHWVKQRPGQGLEWIGEIDPSDSYTTYNQNFKGKATLTVDISTSTAYIQLSNLTSEDSAVYYCARLTGNYIHYWGQGTTLTVSS
VL: DIVMTQSHKFMSTSVGDRVSITCKASQDVSPAVAWYQQRPGQCPKLLIFSSSYRSTGVPDRFTGSGSGTDFTFTISSVQAEDLAVYYCQQHYSLPLTFGAGTKLELK
notes: human-murine chimeric antibody, human IgG1
B2: F3.114.12 (antibody, human IgG1, V domains shown)
VH: DVQLQESGPGLVKPSQSLSLTCSVTGYSITSGYDWNWIRQFPGNKLEWMGYISYDGKNNYNPSLRNRISITRDTSKNQFFLKLNSVTTEDTATYYCARRDLRGYFDVWGTGTTVTVSS
VL: DIVLTQSPATLSVTPGDRVSLSCRASQSISNYLHWYQQKSHESPRLLIKYASLSISGIPSRFSGSGSGTDFTLSINSVETEDFGVYFCQQSNSWPLTFGAGTKLELK
notes: human-murine chimeric antibody, human IgG1 constant
B3: F6.2.9 (antibody, human IgG1, V domains shown)
VH: QVQLQQSGAELVKPGASVKISCKASGYAFSSYWMNWVKQRPGKGLEWIGQIYPGDGDTNYNGKFKGKATLTADKSSSTGYMQLSSLTSEDSAVYFCARSRITSVVDWYFDVWGTGTTVTVSS
VL: QIVLSQSPAILSASPGEKVTMTCRASSSVSYMHWYQQKPGSSPKPWIYATSNLASGVPARFSGSGSGTSYSLTISRVEAEDAATYYCQQWSSNPPTFGAGTKLELK
notes: as for B2
B4: F4.276.12 (antibody, human IgG1, V domains shown)
VH: EIQLQQSGPELVKPGASVKVSCKASGYAFSAYNMYWVKQSHGKSLEWIGYIDPYNGGTNYNQKFKGKATLTVDKSSSTAYMHLNSLTSEDSAVYYCARDGYEVTYWGQGTLVTVSA
VL: QIVLTQSPALMSASLGEEITLTCSASSSVTYMHWSQQKSGTSPRLLIYSTSNLASGVPSRFSGSGSGTFYSLTISSVEAEDAADYYCHQWSSYPWTFGGGTKLEIK
notes: as for B2
B5: F3.74.4 (antibody, human IgG1, V domains shown)
VH: QVQLQQSGAELVRPGASVTLSCKASGYTFTDYEMHWVKQTPVHGLEWIGGIAPETGLTTYNQKFEDKAILTADKSSRTAYMELRSLTSEDSAVYFCNPNNYGLWGTGTTVTVSS
VL: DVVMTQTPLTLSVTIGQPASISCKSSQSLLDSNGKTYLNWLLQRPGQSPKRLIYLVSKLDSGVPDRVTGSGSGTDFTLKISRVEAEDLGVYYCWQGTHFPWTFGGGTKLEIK
notes: as for B2
B6: F5.10.6 (antibody, human IgG1, V domains shown)
VH: DVQLQESGPGLVKPSQSLSLTCSVTDYSITSGYYWTWIRQFPGNKLEWMGYISYDGSTNYNPSLKNRFSITRDTSKNQFFLKLNSVIIEDTATYYCARDRMSTTWYFDVWGTGTTVTVSS
VL: DIVLTQSPASLAVSLGQRATISCRASESVDNYGISFMHWYQQKPGQPPKLLIYRASKTESGIPARFSGSGSRTDFTLTINPVETDDVATYYCQQSNKYPRTFGGGTKVEIK
notes: as for B2
B7: F6.5.20 (antibody, human IgG1, V domains shown)
VH: QVQLQQPGAELVKPGASVKLSCKASGYTFTSYWMQWVKQRPGQGLEWIGEIDPSDSYTNYNQKFKGKASLTVDTSSSTAYMQLSSLTSEDSAVYYCARWGLLRNYYVMDYWGQGTSVTVSS
VL: EIVLTQSPTTMAASPGEKITITCSASSSISSNYLHWYQQKPGFSPKLLIYRTSNLASGVPARFSGSGSGTSYSLTIGTMEAEDVATYYCQQGSSIPRMLTFGAGTKLELK
notes: as for B2
B8: F4.272.13 (antibody, human IgG1, V domains shown)
VH: QVQLKESGPGLVAPSQSLSITCTVSGFSLTDYGVSWIRQPPGKGLEWLGVIWGSETTFYNSALKSRLSISKDNSKSQLFLQMNSLQADDTAIYYCAKHHYYGGSFSMDYWGQGTSVTVSS
VL: DIQMTQTTSSLSASLGDRVTISCRASQDINNYLNWYQQKPDGTVKFLIYYTSRLHSGVPSRFSGSGSGTDYSLTISDLEQEDIATYFCQQGNTLPYTFGGGTKLEIK
notes: as for B2
B9: F3.148.10 (antibody, human IgG1, V domains shown)
VH: EVQLQQSGAELVRPGSSVTMSCKTSGYTFTNYGINWVKQRPGQGLEWIGYIFIGNDYTEYNEKFKGKATLTSDTSSSTAYMQLSSLTSEDSAIYFCTRFYSNYYGMDPWGQGTSVTVSS
VL: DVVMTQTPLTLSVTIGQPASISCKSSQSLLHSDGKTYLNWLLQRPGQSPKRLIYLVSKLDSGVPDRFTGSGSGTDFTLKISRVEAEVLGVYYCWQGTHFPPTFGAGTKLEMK
notes: as for B2
B10: F3.109.1 (antibody, human IgG1, V domains shown)
VH: B9 VH with T19K, N31S, F52Y, Y60F, T97A, Y103S, Y104D, G105P, P108Y, Q111H
VL: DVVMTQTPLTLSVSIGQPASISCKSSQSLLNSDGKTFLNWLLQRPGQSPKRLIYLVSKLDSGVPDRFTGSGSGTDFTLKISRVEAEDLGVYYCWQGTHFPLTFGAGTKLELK
notes: as for B2

Residue numbers refer to the chain shown, from its start.

One experiment concerns the target T1, Human CD19-his protein (human, UniProt P15391 20-291).
T1 construct: bought protein; also called human CD19 protein; recombinant human CD19-His; not shown: His tag
T1 sequence (looked up): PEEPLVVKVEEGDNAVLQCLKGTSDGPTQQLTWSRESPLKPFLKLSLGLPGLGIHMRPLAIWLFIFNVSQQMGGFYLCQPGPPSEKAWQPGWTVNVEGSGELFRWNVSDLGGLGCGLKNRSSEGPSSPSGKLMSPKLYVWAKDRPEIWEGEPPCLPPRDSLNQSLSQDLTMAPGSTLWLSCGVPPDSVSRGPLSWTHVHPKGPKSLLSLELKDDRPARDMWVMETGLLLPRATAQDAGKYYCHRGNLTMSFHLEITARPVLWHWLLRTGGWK
The experiment is described as follows: ELISA, antibody at 1.00 nM. The protocol:
(§1) Human CD19-his protein (purchased from ACROBiosystems, catalog number: CD9-H52H2) was diluted with PBS to a final concentration of 4 μg/mL, and then added to a 96-well ELISA plate at 100 μl/well. The plate was sealed with a plastic film and incubated overnight at 4° C., the plate was washed 2 times with PBS the next day, and then a blocking solution [PBS+2% (w/w) BSA] was added for blocking at room temperature for 2 h. The blocking solution was poured off, and 100 nM gradiently diluted CD19 chimeric antibody or control antibody was added at 50 μl/well. After incubation at 37° C. for 2 h, the plate was washed 3 times with PBS. […] TMB substrate was added at 50 μl/well, and incubated at room temperature for 10 min, and then a stop solution (1.0 N HCl) was added at 50 μl/well. The OD450 nm values were read by an ELISA microplate reader (Multimode Plate Reader, EnSight, purchased from Perkin Elmer).
On the technique in general: An ELISA detects its analyte on a solid surface through an enzyme-linked reagent.
B1 registered an OD450 of 0.2.

Another experiment addresses T2, murine CD19 protein (murine, UniProt P25918 17-287, limits assumed).
T2 construct: bought protein; also called commercial murine CD19
T2 sequence (looked up): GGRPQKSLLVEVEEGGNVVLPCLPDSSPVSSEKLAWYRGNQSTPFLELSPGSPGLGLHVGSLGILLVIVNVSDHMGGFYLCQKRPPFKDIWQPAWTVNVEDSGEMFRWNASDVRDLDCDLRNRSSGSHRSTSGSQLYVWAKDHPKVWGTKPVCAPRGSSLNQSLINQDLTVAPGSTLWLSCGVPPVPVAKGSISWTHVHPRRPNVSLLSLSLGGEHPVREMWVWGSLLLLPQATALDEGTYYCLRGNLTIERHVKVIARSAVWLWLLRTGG
The experiment in a line: ELISA, coated murine CD19. The protocol: as §1
In order to detect the species cross-binding activity of the chimeric antibodies, an ELISA plate was coated with commercial murine CD19 (ACROBiosystems, catalog number: 50510-M08H) and monkey CD19 (ACROBiosystems, catalog number: 90051-C08H), respectively, and the ELISA detection was performed according to the method in example 5.1.
With B1, the binding result is recorded as “no binding”.

The target in a further experiment is T1, Human CD19-his protein. The experiment is described as follows: ELISA, antibody at 0.01 nM. The protocol: as §1
In turn, B1 gave an OD450 of 0.05.

A further experiment concerns the target T3, human CD19 exon1-3-His tag protein (human, UniProt P15391 20-186, limits assumed).
T3 construct: membrane-distal part of the extracellular region, made in HEK293E cells; not shown: His tag
T3 sequence (looked up): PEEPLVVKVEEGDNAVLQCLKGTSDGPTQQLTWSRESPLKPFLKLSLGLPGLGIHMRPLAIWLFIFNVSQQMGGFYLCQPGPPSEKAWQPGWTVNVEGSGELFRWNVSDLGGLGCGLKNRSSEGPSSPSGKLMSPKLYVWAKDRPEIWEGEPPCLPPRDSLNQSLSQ
The experiment is described as follows: ELISA on coated human CD19 exon 1-3-His. The protocol: as §1
(§2) CD19 protein contains 4 exons in the extracellular region, in which exons 1-3 are located at the membrane-distal end and exon 4 is located at the membrane-proximal end. […] To identify the distribution of antigen binding epitopes of the chimeric antibodies, human CD19 exon 1-3-His (membrane-distal end) was used to coat at 2 μg/mL according to the ELISA method in example 5.1.
In the case of B2, the binding result is listed as “no binding (tested: 100 nM)”.

Regarding B3, the binding result was “no binding (tested: 100 nM)”.

Turning to B4, the binding result was “no binding (tested: 100 nM)”.

One may read the EC50 (read off the curve) as the concentration that produces a half-maximal response. Regarding B5, the “EC50 (read off the curve)” value is about 0.3 nM.

Take B6: the binding result is given as “no binding (tested: 100 nM)”.

Take B7: the binding result was “no binding (tested: 100 nM)”.

For the molecule B8, the binding result is on record as “no binding (tested: 100 nM)”.

With B9, the “EC50 (read off the curve)” value is about 0.2 nM.

On to B10, for which the “EC50 (read off the curve)” value was about 0.1 nM.

For a further experiment, the target named is T1, Human CD19-his protein. The experiment in a line: ELISA, antibody at 0.10 nM. The method, then: as §1
B1: the OD450 stood at 0.07.

In another experiment the target is T4, human CD19 exon1-3-his protein (human, UniProt P15391 20-186, limits assumed).
T4 construct: made in HEK293E cells; also called membrane-distal end; not shown: His tag
T4 sequence (looked up): T3 sequence (looked up)
The experiment in a line: ELISA, coated at 2 ug/mL. The protocol:
as §1, §2
B1: the binding result was “no binding”.

The next experiment deals with T1, Human CD19-his protein. The experiment in a line: ELISA, antibody at 0.001 nM. The method, then:
as §1
Turning to B1, the OD450 is 0.05.

Another experiment addresses T1, Human CD19-his protein. The experiment is described as follows: ELISA, antibody at 10 nM. The protocol: as §1
For B1, the OD450 was 0.46.

The next experiment deals with T5, Human CD19-his protein (human, UniProt P15391 20-291).
T5 construct: bought protein; also called recombinant human CD19-His; CD19 full-length protein; not shown: His tag
T5 sequence (looked up): T1 sequence (looked up)
The experiment is described as follows: SPR Biacore, Ab captured on Protein A, CD19-His analyte. The protocol: A sample buffer and a running buffer were HBS-EP+ (10 mM HEPES, 150 mM NaCl, 3 mM EDTA and 0.05% surfactant P20) (GE Healthcare; BR-1006-69). The flow-through cell was set to 25° C. The sample block was set to 16° C. Both were pretreated with the running buffer. In each cycle, an antibody to be detected was first captured with a Protein A chip, and then a single concentration of CD19 antigen protein was injected. The binding and dissociation processes of the antibody and the antigen protein were recorded, and finally Glycine pH 1.5 (GE Healthcare; BR-1003-54) was used to complete chip regeneration. The binding was measured by injecting different concentrations of recombinant human CD19-His proteins in a solution for 240 s with a flow rate of 30 μl/min. The concentration started from 200 nM (see the detailed results for the actual concentration in the test) and was diluted at 1:1, making a total of 5 concentrations. The dissociation phase was monitored for up to 600 s and was triggered by switching from sample solution to running buffer. The surface was regenerated by washing with a 10 mM glycine solution (pH 1.5) for 30 s at a flow rate of 30 μl/min. Bulk refractive index difference was corrected by subtracting the response obtained from the goat anti-human Fc surface. Blank injection was also subtracted (=double reference). For calculation of apparent KD and other kinetic parameters, Langmuir 1:1 model was used.
On the technique in general: SPR reads the build-up and loss of mass on a sensor chip optically.
One may read the Kd as the constant that tells how readily two partners part at equilibrium. Low values mean a tighter complex, high ones a looser complex. For orientation: koff means a measure of how fast the partners let go of each other. What is called kon is a measure of how fast the partners come together. The low end stands for slow association, the high end for fast association. Molecule B2 showed a Kd of 6.03 nM, a koff of 0.000465 s⁻¹ and a kon of 77000 M⁻¹ s⁻¹.

For B3, the Kd came out at 21.7 nM, the koff is 0.0033 s⁻¹ and the kon worked out at 152000 M⁻¹ s⁻¹.

As for B4, binding was put at a Kd of 3.33 nM, the koff is 0.00081 s⁻¹ and the kon was 243000 M⁻¹ s⁻¹.

The molecule B5 gave a Kd of 18.7 nM, an off-rate (koff) of 0.000879 s⁻¹ and a kon of 47100 M⁻¹ s⁻¹.

In turn, B6 yielded a Kd of 1.84 nM, a koff of 0.000151 s⁻¹ and a kon of 82100 M⁻¹ s⁻¹.

The molecule B7 came in with a Kd of 5.28 nM, a koff of 0.00187 s⁻¹ and a kon of 355000 M⁻¹ s⁻¹.

As to B8, binding was put at a Kd of 0.294 nM, the koff was 6.51e-05 s⁻¹ and the kon is 221000 M⁻¹ s⁻¹.

Molecule B9 gave a Kd of 5.32 nM, a koff of 0.00119 s⁻¹ and an on-rate (kon) of 224000 M⁻¹ s⁻¹.

In the case of B10, the Kd was 5.67 nM, the koff worked out at 0.00108 s⁻¹ and the kon is 190000 M⁻¹ s⁻¹.

For the next experiment, the target named is T1, Human CD19-his protein. The experiment in a line: ELISA, antibody at 0.0001 nM. The protocol: as §1
On to B1, for which the OD450 amounted to 0.05.

For another experiment, the target named is T1, Human CD19-his protein. The experiment in a line: ELISA, antibody at 100 nM. The protocol: as §1
B1: the OD450 worked out at 0.7.
